Experimental data taken from patent US20070059820A1.
Each block holds one molecule with its values, some of them ahead of it.

Key:
recombinant Flk-1 [1] = target: recombinant Flk-1 (UniProt P35918); experiment: competition ELISA: antibody mixed with Flk-1, added to coated human VEGF, anti-Flk-1-HRP; antibody at 333 ng/ml
recombinant Flk-1 [2] = target: recombinant Flk-1 (UniProt P35918); experiment: competition ELISA: antibody mixed with Flk-1, added to coated human VEGF, anti-Flk-1-HRP; antibody at 12 ng/ml
recombinant Flk-1 [3] = target: recombinant Flk-1 (UniProt P35918); experiment: competition ELISA: antibody mixed with Flk-1, added to coated human VEGF, anti-Flk-1-HRP; antibody at 111 ng/ml
recombinant Flk-1 [4] = target: recombinant Flk-1 (UniProt P35918); experiment: ELISA on coated recombinant Flk-1, anti-rat IgG1 HRP; antibody at 111 ng/ml
recombinant Flk-1 [5] = target: recombinant Flk-1 (UniProt P35918); experiment: competition ELISA: antibody mixed with Flk-1, added to coated human VEGF, anti-Flk-1-HRP; antibody at 0 ng/ml (no inhibitor)
recombinant Flk-1 [6] = target: recombinant Flk-1 (UniProt P35918); experiment: competition ELISA: antibody mixed with Flk-1, added to coated human VEGF, anti-Flk-1-HRP; antibody at 1000 ng/ml
recombinant Flk-1 [7] = target: recombinant Flk-1 (UniProt P35918); experiment: ELISA on coated recombinant Flk-1, anti-rat IgG1 HRP; antibody at 0 ng/ml (background)
recombinant Flk-1 [8] = target: recombinant Flk-1 (UniProt P35918); experiment: ELISA on coated recombinant Flk-1, anti-rat IgG1 HRP; antibody at 333 ng/ml
recombinant Flk-1 [9] = target: recombinant Flk-1 (UniProt P35918); experiment: ELISA on coated recombinant Flk-1, anti-rat IgG1 HRP; antibody at 37 ng/ml
recombinant Flk-1 [10] = target: recombinant Flk-1 (UniProt P35918); experiment: ELISA on coated recombinant Flk-1, anti-rat IgG1 HRP; antibody at 4 ng/ml
recombinant Flk-1 [11] = target: recombinant Flk-1 (UniProt P35918); experiment: ELISA on coated recombinant Flk-1, anti-rat IgG1 HRP; antibody at 12 ng/ml
recombinant Flk-1 [12] = target: recombinant Flk-1 (UniProt P35918); experiment: competition ELISA: antibody mixed with Flk-1, added to coated human VEGF, anti-Flk-1-HRP; antibody at 37 ng/ml
recombinant Flk-1 [13] = target: recombinant Flk-1 (UniProt P35918); experiment: ELISA on coated recombinant Flk-1, anti-rat IgG1 HRP; antibody at 1000 ng/ml
recombinant Flk-1 [14] = target: recombinant Flk-1 (UniProt P35918); experiment: competition ELISA: antibody mixed with Flk-1, added to coated human VEGF, anti-Flk-1-HRP; antibody at 4 ng/ml

Chain of UniProt P35918 (P35918 20-762 limits assumed): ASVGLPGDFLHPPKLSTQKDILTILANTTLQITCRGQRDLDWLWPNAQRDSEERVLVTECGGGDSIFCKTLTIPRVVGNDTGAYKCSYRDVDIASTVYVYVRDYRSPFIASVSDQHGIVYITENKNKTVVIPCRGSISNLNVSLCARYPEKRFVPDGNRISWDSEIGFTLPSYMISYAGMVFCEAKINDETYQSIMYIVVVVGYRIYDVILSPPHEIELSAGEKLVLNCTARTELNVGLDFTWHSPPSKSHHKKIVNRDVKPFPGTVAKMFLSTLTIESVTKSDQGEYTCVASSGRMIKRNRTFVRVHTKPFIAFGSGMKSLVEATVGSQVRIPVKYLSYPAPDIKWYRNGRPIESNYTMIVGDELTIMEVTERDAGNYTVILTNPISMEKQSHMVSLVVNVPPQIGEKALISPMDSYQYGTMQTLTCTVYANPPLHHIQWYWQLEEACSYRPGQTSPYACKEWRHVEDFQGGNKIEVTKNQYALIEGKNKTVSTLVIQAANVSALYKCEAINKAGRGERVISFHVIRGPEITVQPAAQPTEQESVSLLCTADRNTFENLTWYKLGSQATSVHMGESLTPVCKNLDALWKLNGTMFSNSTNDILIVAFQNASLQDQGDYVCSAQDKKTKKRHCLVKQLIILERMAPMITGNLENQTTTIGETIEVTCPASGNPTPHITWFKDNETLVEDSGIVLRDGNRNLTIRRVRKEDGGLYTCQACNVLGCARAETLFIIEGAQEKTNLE

signal of Flk-1 bound to coated VEGF (name and unit not given) (recombinant Flk-1 [1]): 0.357
signal of Flk-1 bound to coated VEGF (name and unit not given) (recombinant Flk-1 [2]): 0.931
signal of Flk-1 bound to coated VEGF (name and unit not given) (recombinant Flk-1 [3]): 0.635
ELISA signal (name and unit not given) (recombinant Flk-1 [4]): 0.724
signal of Flk-1 bound to coated VEGF (name and unit not given) (recombinant Flk-1 [5]): 1.1
signal of Flk-1 bound to coated VEGF (name and unit not given) (recombinant Flk-1 [6]): 0.193
ELISA signal (name and unit not given) (recombinant Flk-1 [7]): 0.117
ELISA signal (name and unit not given) (recombinant Flk-1 [8]): 0.894
ELISA signal (name and unit not given) (recombinant Flk-1 [9]): 0.585
ELISA signal (name and unit not given) (recombinant Flk-1 [10]): 0.312
ELISA signal (name and unit not given) (recombinant Flk-1 [11]): 0.403
signal of Flk-1 bound to coated VEGF (name and unit not given) (recombinant Flk-1 [12]): 0.834
ELISA signal (name and unit not given) (recombinant Flk-1 [13]): 1.12
signal of Flk-1 bound to coated VEGF (name and unit not given) (recombinant Flk-1 [14]): 0.992
Molecule: DC101 antibody produced by a hybridoma

signal of Flk-1 bound to coated VEGF (name and unit not given) (recombinant Flk-1 [1]): 0.237
signal of Flk-1 bound to coated VEGF (name and unit not given) (recombinant Flk-1 [2]): 0.945
signal of Flk-1 bound to coated VEGF (name and unit not given) (recombinant Flk-1 [3]): 0.43
ELISA signal (name and unit not given) (recombinant Flk-1 [4]): 0.616
signal of Flk-1 bound to coated VEGF (name and unit not given) (recombinant Flk-1 [5]): 1.07
signal of Flk-1 bound to coated VEGF (name and unit not given) (recombinant Flk-1 [6]): 0.184
ELISA signal (name and unit not given) (recombinant Flk-1 [7]): 0.129
ELISA signal (name and unit not given) (recombinant Flk-1 [8]): 0.993
ELISA signal (name and unit not given) (recombinant Flk-1 [9]): 0.486
ELISA signal (name and unit not given) (recombinant Flk-1 [10]): 0.274
ELISA signal (name and unit not given) (recombinant Flk-1 [11]): 0.412
signal of Flk-1 bound to coated VEGF (name and unit not given) (recombinant Flk-1 [12]): 0.826
ELISA signal (name and unit not given) (recombinant Flk-1 [13]): 1.14
signal of Flk-1 bound to coated VEGF (name and unit not given) (recombinant Flk-1 [14]): 1.04
B1: DC101 antibody expressed from CHO-S cells infected with Lenti-DC101-furin/2A14 (clone 7x-24) (antibody, from another filing, V domains shown)
VH: EVQLVETGGGLVQPGNSLKLSCATSGFIFSTTWMNWIRQTPGKRLEWLAQIEDKSNNYFISYSESVKGRFTISRDDSKSSVYLQMNNLKEEDTAIYYCSWKYRSNYYFDYWGQGVMVTVSS
VL: DIVLTQSPALAVSLEQRATISCKTSQNVDYYGISYLHWYQQKPGQQPKLLIYEGSNLASGIPARFSGSGSGTDFTLTIDPVEADDIVTYYCQQSKDYPYTFGAGTKLELKR
